Laboratory results as given in patent US7491701 (BOYS TOWN NATIONAL RESEARCH HOSPITAL, dated 2009).
Where no end group is shown, it is not given here.

Legend:
[1] = biological target: T1, HS9A_MOUSE, heat shock protein HSP-90 alpha (HSP 86) (mouse, UniProt P07901 2-733); assay: peptide affinity matrix pull-down from mouse brain extract, Coomassie-stained SDS-PAGE (FIG. 1A)
T1 construct: Native protein captured from mouse brain extract; identified by mass spectrometry and western blot; also called p97; 97-kilodalton protein
Description: FIG. 1A Coomassie stained gel, FIG. 1B Western analysis of an identical gel with antibody to beta-COP. MW=molecular weight markers, Total=13,200 rpm supernatant loaded onto column matrix. E47=sample eluted from OTOF CTERM E47 column matrix. BC1=672 BC1, E48=OTOF CTERM E48, CC1=670 CC1. Brain extracts were made in a Potter-Elvehjem Teflon glass homogenizer using 1 ml/100 mg tissue of TNGD (50 mM TRIS 7.5, 75 mM NaCl, 10 mM EGTA, 2 mM EDTA) plus protease inhibitor 10 ul/ml (Sigma P8340). Protein extracts were absorbed to four Sulfolink-peptide affinity matrices and washed four times with TNGD. The column matrix was transferred to PCR tubes and made 1× with SDS buffer (Pierce Cat. No. 39001) and heated at 95° C. for 5 minutes. Samples were separated on a 4-20% polyacrylamide gel. E47 peptide corresponds to otoferlin exon 47 C-terminal. E48 peptide corresponds to otoferlin exon 48 C-terminal. BC1 and CC1 peptides are specific controls for E47 and E48 respectively where a di-serine replaces di-lysine. Antibody to beta-COP (Ocogene cat # PC175) was used at a dilution of 1:1500.

[2] = biological target: T2, recombinant human Hsp90α (Stressgen SPP-776, Lot No. B201401) (human, UniProt P07900 1-732); assay: peptide affinity column, elution with 600 mM NaCl, silver-stained SDS-PAGE (no eluted protein was detected from the E47 column)
T2 construct: Bought recombinant protein; also called purified Hsp90α; purified human Hsp90α
Description: The columns was preabsorbed with 100 μl of 10% BSA for 30 minutes at 4° C. and mixed by rotation. The columns were then washed five times with 0.4 ml of TNGD. Four hundred (400) ng of recombinant human Hsp90α (Stressgen SPP-776, Lot No. B201401) in 100 μl of TNGD was added to each column for 30 minutes at 4° C. and mixed by rotation. The unabsorbed protein was removed by centrifugation. The columns were washed five times with 0.4 ml of TNGD, then eluted with 100 μl TNGD+600 mM NaCl. Samples were analyzed on a 4-20% SDS-PAGE gel followed by silver staining using a BIORAD Silver Stain Plus kit (No. 161-0449) as show in FIG. 5. […] The amount of protein added and eluted was determined by scanning the silver stained gel using a Alpha Imager 2200 gel imaging system. Approximately 10% of the protein corresponding to Hsp90 molecular weight was eluted with 600 mM NaCl+TGND from the E48 column while no eluted protein was detected with the same elution conditions from the E47 column.

Binder	binding result [1]	binding result [2]
CYSLPGYMVKKLLGA (not fully specified (residue 1); also: N-terminal Cys coupled to Sulfolink gel matrix (immobilised), also called E48 peptide; exon 48 (E48) otoferlin C-terminal peptide) [OTOF CTERM E48]	binds	–
CYSLPGYLAKKILGA (not fully specified (residue 1); also: N-terminal Cys coupled to Sulfolink gel matrix (immobilised), also called E47 peptide; exon 47 (E47) otoferlin C-terminal peptide) [OTOF CTERM E47]	no binding	no binding
